Measurements published in EP3088890B1 (Chugai Seiyaku Kabushiki Kaisha, dated 2020).
Blank lines part the entries; values can stand above or below the binder they belong to.

Columns and labels:
[1] = biological target: T1, AW5, C-terminally His-tagged recombinant product of positions 1 to 357 of GPC3 (human, UniProt P51654 25-357); assay: Western blot analysis, CHO cell pellets
T1 construct: Expressed in CHO cells, cell pellets used in Western blot; The range is as printed and starts at position 1; also called AW5 (1-357); not shown: C-terminal His tag

[2] = biological target: T2, AW2, C-terminally His-tagged recombinant product of positions 1 to 196 of GPC3 (human, UniProt P51654 25-196); assay: Western blot, pellets of CHO cells expressing the product
T2 construct: Expressed in CHO cells, cell pellets used in Western blot; The range is as printed and starts at position 1; also called AW2 (1-196); not shown: C-terminal His tag

[3] = biological target: GPC3 core (sGPC3-His) protein (human) (UniProt P51654); assay: ELISA on plate-bound sGPC3; biotin-labeled GT114, no unlabeled antibody
[4] = biological target: GPC3 core (sGPC3-His) protein (human) (UniProt P51654); assay: competition ELISA on plate-bound sGPC3; unlabeled GT114 (100-fold) against competitor biotin-labeled GT30
[5] = biological target: GPC3 core (sGPC3-His) protein (human) (UniProt P51654); assay: competition ELISA on plate-bound sGPC3; unlabeled GT114 (100-fold) against competitor biotin-labeled GT114
[6] = biological target: GPC3 core (sGPC3-His) protein (human) (UniProt P51654); assay: competition ELISA on plate-bound sGPC3; unlabeled GT114 (100-fold) against competitor biotin-labeled GT165
[7] = biological target: GPC3 core (sGPC3-His) protein (human) (UniProt P51654); assay: competition ELISA on plate-bound sGPC3; unlabeled GT114 (100-fold) against competitor biotin-labeled GT607
[8] = biological target: GPC3 core (sGPC3-His) protein (human) (UniProt P51654); assay: competition ELISA on plate-bound sGPC3; unlabeled GT114 (100-fold) against competitor biotin-labeled GT30; signal of the labeled antibody
[9] = biological target: GPC3 core (sGPC3-His) protein (human) (UniProt P51654); assay: competition ELISA on plate-bound sGPC3; unlabeled GT114 (100-fold) against competitor biotin-labeled GT114; signal of the labeled antibody
[10] = biological target: GPC3 core (sGPC3-His) protein (human) (UniProt P51654); assay: competition ELISA on plate-bound sGPC3; unlabeled GT114 (100-fold) against competitor biotin-labeled GT165; signal of the labeled antibody
[11] = biological target: GPC3 core (sGPC3-His) protein (human) (UniProt P51654); assay: competition ELISA on plate-bound sGPC3; unlabeled GT114 (100-fold) against competitor biotin-labeled GT607; signal of the labeled antibody
[12] = biological target: GPC3 core (sGPC3-His) protein (human) (UniProt P51654); assay: ELISA on plate-bound sGPC3; biotin-labeled GT165, no unlabeled antibody
[13] = biological target: GPC3 core (sGPC3-His) protein (human) (UniProt P51654); assay: competition ELISA on plate-bound sGPC3; unlabeled GT165 (100-fold) against competitor biotin-labeled GT30
[14] = biological target: GPC3 core (sGPC3-His) protein (human) (UniProt P51654); assay: competition ELISA on plate-bound sGPC3; unlabeled GT165 (100-fold) against competitor biotin-labeled GT114
[15] = biological target: GPC3 core (sGPC3-His) protein (human) (UniProt P51654); assay: competition ELISA on plate-bound sGPC3; unlabeled GT165 (100-fold) against competitor biotin-labeled GT165
[16] = biological target: GPC3 core (sGPC3-His) protein (human) (UniProt P51654); assay: competition ELISA on plate-bound sGPC3; unlabeled GT165 (100-fold) against competitor biotin-labeled GT30; signal of the labeled antibody
[17] = biological target: GPC3 core (sGPC3-His) protein (human) (UniProt P51654); assay: competition ELISA on plate-bound sGPC3; unlabeled GT165 (100-fold) against competitor biotin-labeled GT114; signal of the labeled antibody
[18] = biological target: GPC3 core (sGPC3-His) protein (human) (UniProt P51654); assay: competition ELISA on plate-bound sGPC3; unlabeled GT165 (100-fold) against competitor biotin-labeled GT165; signal of the labeled antibody
[19] = biological target: GPC3 core (sGPC3-His) protein (human) (UniProt P51654); assay: competition ELISA on plate-bound sGPC3; unlabeled GT165 (100-fold) against competitor biotin-labeled GT607; signal of the labeled antibody
[20] = biological target: GPC3 core (sGPC3-His) protein (human) (UniProt P51654); assay: ELISA on plate-bound sGPC3; biotin-labeled GT607, no unlabeled antibody
[21] = biological target: GPC3 core (sGPC3-His) protein (human) (UniProt P51654); assay: competition ELISA on plate-bound sGPC3; unlabeled GT607 (100-fold) against competitor biotin-labeled GT30
[22] = biological target: GPC3 core (sGPC3-His) protein (human) (UniProt P51654); assay: competition ELISA on plate-bound sGPC3; unlabeled GT607 (100-fold) against competitor biotin-labeled GT165
[23] = biological target: GPC3 core (sGPC3-His) protein (human) (UniProt P51654); assay: competition ELISA on plate-bound sGPC3; unlabeled GT607 (100-fold) against competitor biotin-labeled GT607
[24] = biological target: GPC3 core (sGPC3-His) protein (human) (UniProt P51654); assay: competition ELISA on plate-bound sGPC3; unlabeled GT607 (100-fold) against competitor biotin-labeled GT114; signal of the labeled antibody
[25] = biological target: GPC3 core (sGPC3-His) protein (human) (UniProt P51654); assay: competition ELISA on plate-bound sGPC3; unlabeled GT607 (100-fold) against competitor biotin-labeled GT165; signal of the labeled antibody

Chain of GPC3 core (sGPC3-His) protein (human) (P51654 25-563 S495A/S509A): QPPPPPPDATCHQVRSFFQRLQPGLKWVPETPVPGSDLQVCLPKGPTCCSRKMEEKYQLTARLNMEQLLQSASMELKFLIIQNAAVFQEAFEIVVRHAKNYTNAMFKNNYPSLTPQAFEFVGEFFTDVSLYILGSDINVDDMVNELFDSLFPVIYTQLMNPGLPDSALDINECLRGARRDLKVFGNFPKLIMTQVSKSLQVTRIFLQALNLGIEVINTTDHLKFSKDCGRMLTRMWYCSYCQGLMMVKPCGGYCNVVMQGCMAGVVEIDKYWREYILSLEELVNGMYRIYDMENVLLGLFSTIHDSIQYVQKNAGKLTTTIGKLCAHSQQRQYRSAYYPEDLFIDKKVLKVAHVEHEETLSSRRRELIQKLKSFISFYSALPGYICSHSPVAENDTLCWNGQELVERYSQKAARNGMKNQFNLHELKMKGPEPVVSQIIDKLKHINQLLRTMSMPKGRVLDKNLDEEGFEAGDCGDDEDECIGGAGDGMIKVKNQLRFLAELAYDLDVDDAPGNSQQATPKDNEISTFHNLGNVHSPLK
T2 sequence (P51654 25-196): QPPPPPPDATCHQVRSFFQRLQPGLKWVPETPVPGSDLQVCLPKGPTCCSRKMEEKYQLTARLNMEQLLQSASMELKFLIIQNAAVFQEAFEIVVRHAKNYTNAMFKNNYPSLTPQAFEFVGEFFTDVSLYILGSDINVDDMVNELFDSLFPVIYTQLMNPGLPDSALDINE
T1 sequence (P51654 25-357): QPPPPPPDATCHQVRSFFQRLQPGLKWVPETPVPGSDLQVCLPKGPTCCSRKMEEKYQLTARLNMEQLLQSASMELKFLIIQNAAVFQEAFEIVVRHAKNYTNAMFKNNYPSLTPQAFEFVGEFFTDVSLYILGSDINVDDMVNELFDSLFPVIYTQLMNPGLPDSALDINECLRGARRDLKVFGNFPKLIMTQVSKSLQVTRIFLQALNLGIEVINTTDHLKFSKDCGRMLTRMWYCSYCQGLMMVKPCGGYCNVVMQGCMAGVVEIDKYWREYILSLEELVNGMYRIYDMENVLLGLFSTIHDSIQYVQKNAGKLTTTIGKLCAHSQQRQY

binding result [1]: binds | binding result [2]: no binding | O.D. 450 [3]: 2.3 O.D. 450 | Inhibitory effect (%) [4]: < 0% | Inhibitory effect (%) [5]: 89% | Inhibitory effect (%) [6]: < 0% | Inhibitory effect (%) [7]: 86% | O.D. 450 [8]: 2.14 O.D. 450 | O.D. 450 [9]: 0.251 O.D. 450 | O.D. 450 [10]: 1.82 O.D. 450 | O.D. 450 [11]: 0.307 O.D. 450
B1: GT114 antibody (antibody, IgG1, V domains shown)
VH: DVQLQESGPGLVKPSQSLSLTCTVTGYSITSDSAWNWIRQFPGNKLEWMAYIMYSGITSYNPSLKSRISITRDTAKNQFFLQLNSVTTEDSATYYCSRGYWYFDVWGAGTTVTVSS
VL: QIVLTQSPAIMSASLGEEITLTCSASSSVSYMHWYQQKSGTSPKLLIYSTSILASGVPSRFSGSGSGTFYSLTISSVEAEDAADYYCLQWITYRTFGGGTKLEIKR

binding result [2]: no binding | O.D. 450 [12]: 1.68 O.D. 450 | Inhibitory effect (%) [13]: 54% | Inhibitory effect (%) [14]: 1% | Inhibitory effect (%) [15]: 93% | O.D. 450 [16]: 0.846 O.D. 450 | O.D. 450 [17]: 2.28 O.D. 450 | O.D. 450 [18]: 0.111 O.D. 450 | O.D. 450 [19]: 1.25 O.D. 450
B2: GT165 antibody (antibody, IgG1, V domains shown)
VH: QVQLQQSGAELVGPGASVKISCKAFGYTFTNHHINWVKQRPGQGLDWIGYINPYNDYTNYNQKFKGKATLTVDKSSSTAYMELSSLTSEDSAVYYCARSDPAWFAYWGQGTLVTVSA
VL: DIQMTQSPSSLSASLGGKVTITCKASQDINKNIAWYQHKPGKGPRLLIWYTYTLQPGIPSRFSGSGSGRDYSFSISNLEPEDIATYYCLQYDNLPFTFGTGTKLEIKR

binding result [1]: binds | binding result [2]: no binding | O.D. 450 [20]: 2.18 O.D. 450 | Inhibitory effect (%) [21]: < 0% | Inhibitory effect (%) [22]: 92% | Inhibitory effect (%) [23]: 94% | O.D. 450 [24]: 1.13 O.D. 450 | O.D. 450 [25]: 0.129 O.D. 450
B3: GT607 antibody (antibody, IgG1, V domains shown)
VH: EVQLVESGGDVVRPGGSLKLSCAASGFTFSSYGMSWVRQLPDKRLEWVASVGNGGSYRYYPENLKGRFTISRDNTKNTLYLQISGLKSEDTAIYYCARRGAFPYFDVWGAGTTVTVSS
VL: QIVLTQSPAIMSASPGEKVTLACSASSSVTYMHWYQQKSGTSPKRWIYETSKLASGVPPRFSGSGSGTSYSLTISTMEAEDAATYYCQQWSSNPLTFGAGTKLELKR
